B1: SARS‐CoV‐2 NSP3 SUD‐M domain (1356–1493), tag cleaved, for FP (domain or fragment)
chain: LPSIISNEKQEILGTVSWNLREMLAHAEETRKLMPVCVETKAIVSTIQRKYKGIKIQEGVVDYGARFYFYTSKTTVASLINTLNDLNETLVTMPLGYVTHGLNLEEAARYMRSLKVPATVSVSSPDAVTAYNGYLTSS
B2: SARS‐CoV‐2 NSP3 UBl1 domain (819–925), tag cleaved, for FP (domain or fragment)
chain: APTKVTFGDDTVIEVQGYKSVNITFELDERIDKVLNEKCSAYTVELGTEVNEFACVVADAVIKTLQPVSELLTPLGIDLDEWSMATYYLFDESGEFKLASHMYCSFY

Experiments:
PRDM14 wild-type peptide = assay: FP
NCOA2 wild-type peptide = assay: FP

Binder | Kd (PRDM14 wild-type peptide) [µM] | Kd (NCOA2 wild-type peptide) [µM]
B1 | 74 | –
B2 | – | 39

Reference: PMC12102759 (2025)
